Here are results for nine molecules from patent US20220144956A1 (Xencor, published 2022).

For experiment [1], the target named is T1, His-tagged human CD5 antigen (human, UniProt P06127 25-372, limits assumed).
T1 construct: not shown: His tag
T1 sequence (looked up): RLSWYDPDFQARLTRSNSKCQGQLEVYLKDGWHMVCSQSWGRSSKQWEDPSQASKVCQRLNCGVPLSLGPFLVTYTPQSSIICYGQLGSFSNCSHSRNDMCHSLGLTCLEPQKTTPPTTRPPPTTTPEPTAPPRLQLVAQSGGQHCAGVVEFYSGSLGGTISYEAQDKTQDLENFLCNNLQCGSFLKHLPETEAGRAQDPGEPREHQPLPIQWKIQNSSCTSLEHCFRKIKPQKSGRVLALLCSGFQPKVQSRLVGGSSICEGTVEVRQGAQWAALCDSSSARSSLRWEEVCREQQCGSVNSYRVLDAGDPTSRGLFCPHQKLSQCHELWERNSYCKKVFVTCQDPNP
The experiment in a line: method not stated; the filing prints 'TGFßRII' but the sentence is about restoring the CD5 affinity of Cd5-B VH variants, so the target is taken as CD5.

Experiment [2] addresses T2, His-tagged cynomolgus CD5 antigen (cynomolgus monkey).
T2 construct: also called cyno CD5
Described as above.

The target in experiment [3] is T3, human CD5 on human PBMCs / T cells (human, UniProt P06127 25-495).
T3 construct: whole, on cells
T3 sequence (looked up): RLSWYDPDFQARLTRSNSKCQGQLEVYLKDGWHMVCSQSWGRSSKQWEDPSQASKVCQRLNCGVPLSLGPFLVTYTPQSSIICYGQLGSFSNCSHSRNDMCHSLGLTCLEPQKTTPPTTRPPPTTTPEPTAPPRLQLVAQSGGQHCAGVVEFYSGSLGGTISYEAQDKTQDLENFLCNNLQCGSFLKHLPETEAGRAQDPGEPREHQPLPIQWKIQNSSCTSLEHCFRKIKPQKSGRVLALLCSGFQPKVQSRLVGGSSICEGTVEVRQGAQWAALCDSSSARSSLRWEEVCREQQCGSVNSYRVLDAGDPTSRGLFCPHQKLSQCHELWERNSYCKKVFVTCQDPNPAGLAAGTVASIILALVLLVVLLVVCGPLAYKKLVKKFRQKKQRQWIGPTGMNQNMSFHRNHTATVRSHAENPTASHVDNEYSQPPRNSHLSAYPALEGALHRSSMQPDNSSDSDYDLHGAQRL
The experiment can be described thus: flow cytometry on unstimulated human PBMCs, anti-human Fc Alexa647 secondary. The method, then: Next, cell binding of the bispecific antibodies were investigated. Unstimulated PBMCs were incubated with the indicated dose of bispecific antibodies for 1 hour on ice and washed. Next, the PBMCs were stained with goat anti-human Fc secondary antibody conjugated to Alexa647 (to assess binding of the bispecific antibodies) and antibodies against cell surface antigens (to define T cell populations) for 40 minutes on ice. Finally, the cells were analyzed by flow cytometry.
(In general: In flow cytometry, cells or beads pass a laser one at a time.)

Experiment [4] concerns the target T1, His-tagged human CD5 antigen. The experiment in a line: worded comparison of affinity (Octet KD values in FIG. 68). An excerpt: In particular, His-tagged human and cynomolgus CD5 antigen were captured using HIS1K sensors and dipped into multiple concentrations of the bispecific antibodies.
For orientation: BLI is a label-free optical method that tracks binding on a fibre tip over time.

Experiment [5] has as its target T4, human TGFßRII on human PBMCs / T cells (human, UniProt P37173 23-567).
T4 construct: whole, on cells; also called cell-surface TGFßRII; TGFßR2
The experiment in a line: flow cytometry, Alexa647-labeled mAb on anti-CD3 activated human PBMCs.

Experiment [6] concerns the target T3, human CD5 on human PBMCs / T cells. The experiment in a line: cell binding on unstimulated human PBMCs (FIG. 67).

Where a chain is given by its changes, count along the chain named. Names and notes keep the numbering of the source.

T4 sequence (P37173 23-567): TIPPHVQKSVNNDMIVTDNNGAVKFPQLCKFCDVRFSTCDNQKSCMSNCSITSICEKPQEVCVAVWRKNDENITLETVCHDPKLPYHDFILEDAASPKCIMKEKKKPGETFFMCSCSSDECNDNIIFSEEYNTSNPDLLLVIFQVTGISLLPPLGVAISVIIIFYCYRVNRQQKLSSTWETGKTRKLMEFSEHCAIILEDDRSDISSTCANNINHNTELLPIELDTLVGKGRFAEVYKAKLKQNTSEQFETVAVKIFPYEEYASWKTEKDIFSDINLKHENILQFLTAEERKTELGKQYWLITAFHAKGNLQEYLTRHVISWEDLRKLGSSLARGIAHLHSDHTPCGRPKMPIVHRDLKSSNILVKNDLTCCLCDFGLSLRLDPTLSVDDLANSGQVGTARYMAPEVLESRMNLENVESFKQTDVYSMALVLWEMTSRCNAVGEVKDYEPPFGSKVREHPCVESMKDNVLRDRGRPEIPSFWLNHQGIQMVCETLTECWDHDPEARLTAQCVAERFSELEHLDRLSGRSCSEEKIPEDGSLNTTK

B1: Cd5-B H2L1 (further humanized variant of Cd5-B) (antibody, V domains shown)
VH: QVQLVQSGAEVKKPGASVKVSCKASGYSFTSYWMNWVRQAPGQGLEWMGMIHPSDSETRYNQKFQGRVTMTVDKSTSTAYMELSSLRSEDTAVYYCARWGDHDDAMDFWGQGTMVTVSS
VL: DIVLTQSPSSLSASVGDRVTITCRPSENIYGYFAWYQQKPGKSPKLLVYNAKTLAEGVPSRFSGSGSGTDFTLTISSLQPEDFATYYCQHHYGTPFTFGPGTKVEIK
For orientation: Kd means the concentration at which binding is half-saturated. Lower therefore signals higher affinity. Take B1: the Kd in experiment [1] came out at 2 nM; in experiment [2], 0.3 nM.

B2: Cd5-B H1.23_L1 (further humanized variant of Cd5-B) (antibody, V domains shown)
VH: EVQLVQSGAEVKKPGESLKISCKASGYSFTSYWMNWVRQMPGKGLEWMGMIYPSDSETRYNQSFQGQVTISVDKSISTAYLQWSSLKASDTAMYYCARWGDHDDAMDFWGQGTMVTVSS
VL: B1 VL
Take B2: the dissociation constant Kd in experiment [1] was 4 nM; in experiment [2] it was 3 nM.

B3: Cd5-B H1.36_L1 (further humanized variant of Cd5-B) (antibody, V domains shown)
VH: B2 VH with Y52H, S63K
VL: B1 VL
Turning to B3, the dissociation constant Kd came to 4 nM in experiment [1] and 2 nM in experiment [2].

B4: XENP35399 (bispecific antibody, human IgG1, kappa)
heavy: EVQLVESGGGVVQPGRSLRLSCTFSGFSLSTSGMGVGWIRQAPGKGLEWVAHIWWDDDVYYNPSLKSRLTITKDASTDTVYMELSSLRSEDTAVYYCVRRRATGTGFDYWGQGTLVTVSSASTKGPSVFPLAPSSKSTSGGTAALGCLVKDYFPEPVTVSWNSGALTSGVHTFPAVLQSSGLYSLSSVVTVPSSSLGTQTYICNVNHKPSDTKVDKKVEPKSCDKTHTCPPCPAPPVAGPSVFLFPPKPKDTLMISRTPEVTCVVVDVKHEDPEVKFNWYVDGVEVHNAKTKPREEEYNSTYRVVSVLTVLHQDWLNGKEYKCKVSNKALPAPIEKTISKAKGQPREPQVYTLPPSREEMTKNQVSLTCDVSGFYPSDIAVEWESDGQPENNYKTTPPVLDSDGSFFLYSKLTVDKSRWEQGDVFSCSVMHEALHNHYTQKSLSLSPGK
scFv-Fc: QLQVQESGPGLVKPSETLSLTCTVSGGSISNSYFSWGWIRQPPGKGLEWIGSFYYGEKTYYNPSLKSRATISIDTSKSQFSLKLSSVTAADTAVYYCPRGPTVIRGVIDSWGQGTLVTVSSGKPGSGKPGSGKPGSGKPGSEIVLTQSPATLSLSPGERATLSCRASQSVRSYLAWYQQKPGQAPRLLIYDASNRATGIPARFSGSGSGTDFTLTISSLEPEDFAVYYCQQRSNWPPTFGQGTKVEIKEPKSSDKTHTCPPCPAPPVAGPSVFLFPPKPKDTLMISRTPEVTCVVVDVKHEDPEVKFNWYVDGVEVHNAKTKPREEQYNSTYRVVSVLTVLHQDWLNGKEYKCKVSNKALPAPIEKTISKAKGQPREPQVYTLPPSREQMTKNQVKLTCLVKGFYPSDIAVEWESNGQPENNYKTTPPVLDSDGSFFLYSKLTVDKSRWQQGNVFSCSVMHEALHNHYTQKSLSLSPGK
light: NIVMTQSPSSLSASVGDRVTITCQASQDVGTAVAWYQQKPDQSPKLLIYWTSTRHTGVPDRFTGSGSGTDFTLTISSLQPEDIATYFCHQYNSYNTFGSGTKLEIKRTVAAPSVFIFPPSDEQLKSGTASVVCLLNNFYPREAKVQWKVDNALQSGNSQESVTEQDSKDSTYSLSSTLTLSKADYEKHKVYACEVTHQGLSSPVTKSFNRGEC
notes: also called prototype anti-TGFßRII×anti-CD5 bsAb having CD5-targeting arm based on clone 5D7; αTGFßRII×αCD5
Regarding B4, the binding result in experiment [3] is on record as “binds”.

B5: XENP37388 (bispecific antibody, human IgG1, kappa)
heavy: QVTLKESGAELVRPGASVKLSCKASGYSFTSYWMNWVKQRPGQGLEWIGMIHPSDSETRLNQKFKDKATLTVDKSSSTAYMQLSSPTSEDSAVYYCARWGDHDDAMDFWGQGTMVTVSSASTKGPSVFPLAPSSKSTSGGTAALGCLVKDYFPEPVTVSWNSGALTSGVHTFPAVLQSSGLYSLSSVVTVPSSSLGTQTYICNVNHKPSDTKVDKKVEPKSCDKTHTCPPCPAPPVAGPSVFLFPPKPKDTLMISRTPEVTCVVVDVKHEDPEVKFNWYVDGVEVHNAKTKPREEEYNSTYRVVSVLTVLHQDWLNGKEYKCKVSNKALPAPIEKTISKAKGQPREPQVYTLPPSREEMTKNQVSLTCDVSGFYPSDIAVEWESDGQPENNYKTTPPVLDSDGSFFLYSKLTVDKSRWEQGDVFSCSVMHEALHNHYTQKSLSLSPGK
scFv-Fc: B4 scFv-Fc
light: DIVLTQSPASLSASVGESVTITCRPSENIYGYFAWYQQRQGKSPQLLVYNAKTLAEGVPSRFSGSGSGTHFSLKINSLQPEDFGTYYCQHHYGTPFTFGPGTKVDIKRTVAAPSVFIFPPSDEQLKSGTASVVCLLNNFYPREAKVQWKVDNALQSGNSQESVTEQDSKDSTYSLSSTLTLSKADYEKHKVYACEVTHQGLSSPVTKSFNRGEC
notes: also called anti-TGFßRII×anti-CD5 bsAb based on Cd5-B (by the order of the sentence)
Consider B5, for which the binding result in experiment [3] is listed as “binds”.

B6: XENP37385 (bispecific antibody, human IgG1, kappa)
heavy: EVQLKESGAELVRPGGSVKISCKGSGYTFTNFAIHWVKQSHIKTLEWIGLISTSSGDVSYNQKFKDKATMTVDKSSSTAYMELARLTSEDSAIYYCARHYGANNYFDYWGQGTLVTVSSASTKGPSVFPLAPSSKSTSGGTAALGCLVKDYFPEPVTVSWNSGALTSGVHTFPAVLQSSGLYSLSSVVTVPSSSLGTQTYICNVNHKPSDTKVDKKVEPKSCDKTHTCPPCPAPPVAGPSVFLFPPKPKDTLMISRTPEVTCVVVDVKHEDPEVKFNWYVDGVEVHNAKTKPREEEYNSTYRVVSVLTVLHQDWLNGKEYKCKVSNKALPAPIEKTISKAKGQPREPQVYTLPPSREEMTKNQVSLTCDVSGFYPSDIAVEWESDGQPENNYKTTPPVLDSDGSFFLYSKLTVDKSRWEQGDVFSCSVMHEALHNHYTQKSLSLSPGK
scFv-Fc: B4 scFv-Fc
light: EIVLTQSPTIMSASPGEQVTMTCRTNSSVSSSYLHWYQQKSGASPKLWIYGTSNLASGVPTRFSGSGSGTSYSLTISSVEAGDAATYFCQQYSGYPLTFGGGTKVEIKRTVAAPSVFIFPPSDEQLKSGTASVVCLLNNFYPREAKVQWKVDNALQSGNSQESVTEQDSKDSTYSLSSTLTLSKADYEKHKVYACEVTHQGLSSPVTKSFNRGEC
Take B6: the binding result in experiment [4] was “binds”.

B7: XENP33038 (antibody, human IgG1, kappa, V domains shown)
VH: EVQLVESGGGLVKPGGSLRLSCAASGFTFSSFSMNWVRQAPGKGLEWVSSISSSSSYIYYTDSVKGRFTISRDNAKNSLYLQMNSLRAEDTAVYYCARGYWGFDYWGQGTLVTVSS
VL: DIQMTQSPSSLSASVGDRVTITCRASQGIRNDLGWYQQKPGKAPKRLIYAASSLQSGVPSRFSGSASGTEFTLTISSLQPEDFATYYCLQHNSNPLTFGGGTKVEIKR
modifications: Antibody labeled with Alexa647 in the assay; attachment sites not stated.
notes: labeled with Alexa647; also called illustrative anti-TGFßRII mAb XENP33038; copies: 2 + 2
For B7, the binding result in experiment [5] is reported as “binds”.

B8: XENP35401 (antibody, human IgG1, kappa, V domains shown)
VH: EVQLVESGGGVVQPGRSLRLSCTFSGFSLSTSGMGVGWIRQAPGKGLEWVAHIWWDDDVYYNPSLKSRLTITKDASTDTVYMELSSLRSEDTAVYYCVRRRATGTGFDYWGQGTLVTVSS
VL: NIVMTQSPSSLSASVGDRVTITCQASQDVGTAVAWYQQKPDQSPKLLIYWTSTRHTGVPDRFTGSGSGTDFTLTISSLQPEDIATYFCHQYNSYNTFGSGTKLEIKR
notes: IgG1 backbone with E233P/L234V/L235A/G236del/S267K ablation variant; also called bivalent anti-CD5 mAb based on clone 5D7; 5D7; copies: 2 + 2
Consider B8, for which the binding result in experiment [6] is reported as “binds”.

B9: XENP28297 (antibody, human IgG1, kappa, V domains shown)
VH: QLQVQESGPGLVKPSETLSLTCTVSGGSISNSYFSWGWIRQPPGKGLEWIGSFYYGEKTYYNPSLKSRATISIDTSKSQFSLKLSSVTAADTAVYYCPRGPTVIRGVIDSWGQGTLVTVSS
VL: EIVLTQSPATLSLSPGERATLSCRASQSVRSYLAWYQQKPGQAPRLLIYDASNRATGIPARFSGSGSGTDFTLTISSLEPEDFAVYYCQQRSNWPPTFGQGTKVEIKR
modifications: The antibody was labeled with Alexa647 in the cell-binding assay. The dye position is not stated.
notes: also called bivalent anti-TGFßRII mAb based on TBRII-A; copies: 2 + 2
Consider B9, for which the binding result in experiment [5] is “binds”.
